For series [1], the target named is T1, G450A iNOS full length protein (mouse, UniProt P29477 1-1144, G450A).
T1 sequence (looked up): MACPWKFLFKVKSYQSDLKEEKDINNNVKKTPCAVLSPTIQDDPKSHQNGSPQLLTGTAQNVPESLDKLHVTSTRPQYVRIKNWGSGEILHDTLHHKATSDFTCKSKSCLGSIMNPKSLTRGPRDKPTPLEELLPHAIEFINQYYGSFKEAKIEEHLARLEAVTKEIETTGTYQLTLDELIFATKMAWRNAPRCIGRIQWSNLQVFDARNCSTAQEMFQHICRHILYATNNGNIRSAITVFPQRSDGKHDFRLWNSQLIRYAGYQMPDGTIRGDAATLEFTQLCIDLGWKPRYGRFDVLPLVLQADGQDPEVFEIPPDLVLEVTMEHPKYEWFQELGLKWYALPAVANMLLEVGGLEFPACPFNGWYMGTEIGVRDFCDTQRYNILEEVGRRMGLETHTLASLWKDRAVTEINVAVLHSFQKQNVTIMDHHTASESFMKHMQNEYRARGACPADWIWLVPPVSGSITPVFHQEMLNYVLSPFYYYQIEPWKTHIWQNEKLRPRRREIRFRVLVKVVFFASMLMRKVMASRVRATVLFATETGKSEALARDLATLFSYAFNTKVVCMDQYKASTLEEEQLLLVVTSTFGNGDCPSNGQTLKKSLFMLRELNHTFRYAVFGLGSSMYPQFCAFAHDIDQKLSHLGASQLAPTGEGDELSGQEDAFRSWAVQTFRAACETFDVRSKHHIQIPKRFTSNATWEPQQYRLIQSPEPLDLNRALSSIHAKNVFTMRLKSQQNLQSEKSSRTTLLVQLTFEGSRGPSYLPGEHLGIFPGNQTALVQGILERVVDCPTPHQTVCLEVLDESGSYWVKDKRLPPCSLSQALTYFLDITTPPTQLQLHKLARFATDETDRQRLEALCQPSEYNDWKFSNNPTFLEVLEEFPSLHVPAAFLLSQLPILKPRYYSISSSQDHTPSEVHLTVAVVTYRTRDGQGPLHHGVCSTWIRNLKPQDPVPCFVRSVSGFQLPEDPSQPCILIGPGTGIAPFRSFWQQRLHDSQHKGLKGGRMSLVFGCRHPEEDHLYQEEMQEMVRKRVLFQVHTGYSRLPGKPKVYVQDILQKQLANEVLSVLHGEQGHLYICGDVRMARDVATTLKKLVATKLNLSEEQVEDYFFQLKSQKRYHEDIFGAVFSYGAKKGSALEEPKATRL
Briefly: cell-based or functional assay.

Series [2] concerns the molecule itself. Nature of the series: SEC.

B1: wild type Δ65iNOSoxy domain (oxygenase domain of inducible nitric oxide synthase, amino acid 66–498) (domain or fragment, mouse, UniProt P29477 66-498, looked up)
chain: LDKLHVTSTRPQYVRIKNWGSGEILHDTLHHKATSDFTCKSKSCLGSIMNPKSLTRGPRDKPTPLEELLPHAIEFINQYYGSFKEAKIEEHLARLEAVTKEIETTGTYQLTLDELIFATKMAWRNAPRCIGRIQWSNLQVFDARNCSTAQEMFQHICRHILYATNNGNIRSAITVFPQRSDGKHDFRLWNSQLIRYAGYQMPDGTIRGDAATLEFTQLCIDLGWKPRYGRFDVLPLVLQADGQDPEVFEIPPDLVLEVTMEHPKYEWFQELGLKWYALPAVANMLLEVGGLEFPACPFNGWYMGTEIGVRDFCDTQRYNILEEVGRRMGLETHTLASLWKDRAVTEINVAVLHSFQKQNVTIMDHHTASESFMKHMQNEYRARGGCPADWIWLVPPVSGSITPVFHQEMLNYVLSPFYYYQIEPWKTHIWQNE
Consider B1, for which, in series [1], the “NO2^- production of the heterodimer, Griess assay” value (shortened to “NO2^- production”) stood at 30.3 µM and the “NO synthesis (min^-1) of the heterodimer, oxyhemoglobin assay” value (from here on “NO synthesis (min^-1) of the heterodimer”) was 51.8 min⁻¹.

B2: R375N Δ65iNOSoxy (amino acid 66–498) (domain or fragment, mouse, UniProt P29477 66-498, looked up)
chain: LDKLHVTSTRPQYVRIKNWGSGEILHDTLHHKATSDFTCKSKSCLGSIMNPKSLTRGPRDKPTPLEELLPHAIEFINQYYGSFKEAKIEEHLARLEAVTKEIETTGTYQLTLDELIFATKMAWRNAPRCIGRIQWSNLQVFDARNCSTAQEMFQHICRHILYATNNGNIRSAITVFPQRSDGKHDFRLWNSQLIRYAGYQMPDGTIRGDAATLEFTQLCIDLGWKPRYGRFDVLPLVLQADGQDPEVFEIPPDLVLEVTMEHPKYEWFQELGLKWYALPAVANMLLEVGGLEFPACPFNGWYMGTEIGVNDFCDTQRYNILEEVGRRMGLETHTLASLWKDRAVTEINVAVLHSFQKQNVTIMDHHTASESFMKHMQNEYRARGGCPADWIWLVPPVSGSITPVFHQEMLNYVLSPFYYYQIEPWKTHIWQNE
B2 showed a dimer content in series [2] of 38%. Also, in series [1], the “NO2^- production” value stood at 6.3 µM and the “NO synthesis (min^-1) of the heterodimer” value stood at 8.6 min⁻¹.

B3: R375D Δ65iNOSoxy (amino acid 66–498) (domain or fragment, mouse, UniProt P29477 66-498, looked up)
chain: LDKLHVTSTRPQYVRIKNWGSGEILHDTLHHKATSDFTCKSKSCLGSIMNPKSLTRGPRDKPTPLEELLPHAIEFINQYYGSFKEAKIEEHLARLEAVTKEIETTGTYQLTLDELIFATKMAWRNAPRCIGRIQWSNLQVFDARNCSTAQEMFQHICRHILYATNNGNIRSAITVFPQRSDGKHDFRLWNSQLIRYAGYQMPDGTIRGDAATLEFTQLCIDLGWKPRYGRFDVLPLVLQADGQDPEVFEIPPDLVLEVTMEHPKYEWFQELGLKWYALPAVANMLLEVGGLEFPACPFNGWYMGTEIGVDDFCDTQRYNILEEVGRRMGLETHTLASLWKDRAVTEINVAVLHSFQKQNVTIMDHHTASESFMKHMQNEYRARGGCPADWIWLVPPVSGSITPVFHQEMLNYVLSPFYYYQIEPWKTHIWQNE
As to B3, the dimer content in series [2] was 30%. For the same molecule, in series [1], the “NO2^- production” value was found to be 1.8 µM and the “NO synthesis (min^-1) of the heterodimer” value was found to be 1.7 min⁻¹.

B4: R375K Δ65iNOSoxy (amino acid 66–498) (domain or fragment, mouse, UniProt P29477 66-498, looked up)
chain: LDKLHVTSTRPQYVRIKNWGSGEILHDTLHHKATSDFTCKSKSCLGSIMNPKSLTRGPRDKPTPLEELLPHAIEFINQYYGSFKEAKIEEHLARLEAVTKEIETTGTYQLTLDELIFATKMAWRNAPRCIGRIQWSNLQVFDARNCSTAQEMFQHICRHILYATNNGNIRSAITVFPQRSDGKHDFRLWNSQLIRYAGYQMPDGTIRGDAATLEFTQLCIDLGWKPRYGRFDVLPLVLQADGQDPEVFEIPPDLVLEVTMEHPKYEWFQELGLKWYALPAVANMLLEVGGLEFPACPFNGWYMGTEIGVKDFCDTQRYNILEEVGRRMGLETHTLASLWKDRAVTEINVAVLHSFQKQNVTIMDHHTASESFMKHMQNEYRARGGCPADWIWLVPPVSGSITPVFHQEMLNYVLSPFYYYQIEPWKTHIWQNE
As to B4, in series [2], the dimer content is 100%. In series [1], the “NO2^- production” value was 7.8 µM and the “NO synthesis (min^-1) of the heterodimer” value was determined as 17.6 min⁻¹.

Values taken from PMC3306459 (Journal of Inorganic Biochemistry, 2011).
